# Measured values from the RNAGym collection of RNA variant scans (doi:10.7554/elife.80360).
# B1: CPEB3 Ribozyme (parent)
# chain: GGGGGCCACAGCAGAAGCGUUCACGUCGCGGCCCCUGUCAGAUUCUGGUGAAUCUGCGAAUUCUGCUGU
# Variants of: B1
# Experiment: self-cleavage, relative activity (ratio to wild type); higher = more cleavage; co-transcriptional
row,Variant,self-cleavage
1,GGGGGCCACAGCAGAAGCGUACACGUCGCGGCCCCUGUCAGAUUCUGGUGAAUCUACGAAUUCUGCUGU,0.954
2,GGGGGCCACAGCAGAAGCGUACACGUCGCGGCCCCUGUCAGAUUCUGGUGAAUCUCCGAAUUCUGCUGU,0.755
3,GGGGGCCACAGCAGAAGCGUACACGUCGCGGCCCCUGUCAGAUUCUGGUGAAUCUUCGAAUUCUGCUGU,0.936
4,GGGGGCCACAGCAGAAGCGUACACGUCGCGGCCCCUGUCAGAUUCUGGUGAAUCUGCAAAUUCUGCUGU,0.898
5,GGGGGCCACAGCAGAAGCGUACACGUCGCGGCCCCUGUCAGAUUCUGGUGAAUCUGCGAAUUCUCCUGU,0.6
6,GGGGGCCACAGCAGAAGCGUACACGUCGCGGCCCCUGUCAGAUUCUGGUGAAUCUGCGAAUUCUGCUCU,1.02
7,GGGGGCCACAGCAGAAGCGUACACGUCGCGGCCCCUGUCAGAUUCUGGUGAAUCUGCGAAUUCUGCUUU,0.976
8,GGGGGCCACAGCAGAAGCGUACACGACGCGGCCCCUGUCAGAUUCUGGUGAAUCUGCGAAUUCUGCUGU,0.796
9,GGGGGCCACAGCAGAAGCGUACACGCCGCGGCCCCUGUCAGAUUCUGGUGAAUCUGCGAAUUCUGCUGU,0.985
10,GGGGGCCACAGCAGAAGCGUACACGGCGCGGCCCCUGUCAGAUUCUGGUGAAUCUGCGAAUUCUGCUGU,0.869
11,GGGGGCCACAGCAGAAGCGUACACGUCGCGGCCCCAGUCAGAUUCUGGUGAAUCUGCGAAUUCUGCUGU,0.253
12,GGGGGCCACAGCAGAAGCGUACACGUCGCGGCCCCCGUCAGAUUCUGGUGAAUCUGCGAAUUCUGCUGU,0.693
13,GGGGGCCACAGCAGAAGCGUACACGUCGCGGCCCCGGUCAGAUUCUGGUGAAUCUGCGAAUUCUGCUGU,0.272
14,GGGGGCCACAGCAGAAGCGUACACGUCGCGGCCCCUGACAGAUUCUGGUGAAUCUGCGAAUUCUGCUGU,0.276
15,GGGGGCCACAGCAGAAGCGUACACGUCGCGGCCCCUGCCAGAUUCUGGUGAAUCUGCGAAUUCUGCUGU,0.373
16,GGGGGCCACAGCAGAAGCGUACACGUCGCGGCCCCUGGCAGAUUCUGGUGAAUCUGCGAAUUCUGCUGU,0.24
17,GGGGGCCACAGCAGAAGCGUACACGUCGCGGCCCCUGUCAGAAUCUGGUGAAUCUGCGAAUUCUGCUGU,0.906
18,GGGGGCCACAGCAGAAGCGUACACGUCGCGGCCCCUGUCAGAGUCUGGUGAAUCUGCGAAUUCUGCUGU,0.833
19,GGGGGCCACAGCAGAAGCGUACACGUCGCGGCCCCUGUCAGAUACUGGUGAAUCUGCGAAUUCUGCUGU,0.901
20,GGGGGCCACAGCAGAAGCGUACACGUCGCGGCCCCUGUCAGAUCCUGGUGAAUCUGCGAAUUCUGCUGU,0.817
21,GGGGGCCACAGCAGAAGCGUACACGUCGCGGCCCCUGUCAGAUGCUGGUGAAUCUGCGAAUUCUGCUGU,0.952
22,GGGGGCCACAGCAGAAGCGUACACGUCGCGGCCCCUGUCAGAUUCAGGUGAAUCUGCGAAUUCUGCUGU,1.03
23,GGGGGCCACAGCAGAAGCGUACACGUCGCGGCCCCUGUCAGAUUCCGGUGAAUCUGCGAAUUCUGCUGU,0.926
24,GGGGGCCACAGCAGAAGCGUACACGUCGCGGCCCCUGUCAGAUUCGGGUGAAUCUGCGAAUUCUGCUGU,0.934
25,GGGGGCCACAGCAGAAGCGUACACGUCGCGGCCCCUGUCAGAUUCUGGAGAAUCUGCGAAUUCUGCUGU,0.96
26,GGGGGCCACAGCAGAAGCGUACACGUCGCGGCCCCUGUCAGAUUCUGGCGAAUCUGCGAAUUCUGCUGU,0.972

row,Variant,self-cleavage
1,GGGGGCCACAGCAGAAGCGUACACGUCGCGGCCCCUGUCAGAUUCUGGGGAAUCUGCGAAUUCUGCUGU,0.95
2,GGGGGCCACAGCAGAAGCGUACACGUCGCGGCCCCUGUCAGAUUCUGGUGAAACUGCGAAUUCUGCUGU,0.936
3,GGGGGCCACAGCAGAAGCGUACACGUCGCGGCCCCUGUCAGAUUCUGGUGAACCUGCGAAUUCUGCUGU,0.927
4,GGGGGCCACAGCAGAAGCGUACACGUCGCGGCCCCUGUCAGAUUCUGGUGAAGCUGCGAAUUCUGCUGU,0.863
5,GGGGGCCACAGCAGAAGCGUACACGUCGCGGCCCCUGUCAGAUUCUGGUGAAUCCGCGAAUUCUGCUGU,0.874
6,GGGGGCCACAGCAGAAGCGUACACGUCGCGGCCCCUGUCAGAUUCUGGUGAAUCUGCGAAAUCUGCUGU,0.907
7,GGGGGCCACAGCAGAAGCGUACACGUCGCGGCCCCUGUCAGAUUCUGGUGAAUCUGCGAAGUCUGCUGU,0.94
8,GGGGGCCACAGCAGAAGCGUACACGUCGCGGCCCCUGUCAGAUUCUGGUGAAUCUGCGAAUACUGCUGU,0.853
9,GGGGGCCACAGCAGAAGCGUACACGUCGCGGCCCCUGUCAGAUUCUGGUGAAUCUGCGAAUGCUGCUGU,0.798
10,GGGGGCCACAGCAGAAGCGUACACGUCGCGGCCCCUGUCAGAUUCUGGUGAAUCUGCGAAUUCAGCUGU,0.91
11,GGGGGCCACAGCAGAAGCGUACACGUCGCGGCCCCUGUCAGAUUCUGGUGAAUCUGCGAAUUCCGCUGU,0.874
12,GGGGGCCACAGCAGAAGCGUACACGUCGCGGCCCCUGUCAGAUUCUGGUGAAUCUGCGAAUUCUGCAGU,0.992
13,GGGGGCCACAGCAGAAGCGUACACGUCGCGGCCCCUGUCAGAUUCUGGUGAAUCUGCGAAUUCUGCCGU,0.951
14,GGGGGCCACAGCAGAAGCGUACACGUCGCGGCCCCUGUCAGAUUCUGGUGAAUCUGCGAAUUCUGCUGA,1.01
15,GGGGGCCACAGCAGAAGCGUACACGUCGCGGCCCCUGUCAGAUUCUGGUGAAUCUGCGAAUUCUGCUGC,1.06
16,GGGGGCCACAGCAGAAGCGUACACGUCGCGGCCCCUGUCAGAUUCUGGUGAAUCUGCGAAUUCUGCUGG,1.06
17,GGGGGCCACAGCAGAAGCGUCCACGUCGCGGCCCCUGUCAGAUUCUGGUGAAUCUGCGAAUUCUGCUGU,0.92
18,GGGGGCCACAGCAGAAGCGUCCCCGUCGCGGCCCCUGUCAGAUUCUGGUGAAUCUGCGAAUUCUGCUGU,0.608
19,GGGGGCCACAGCAGAAGCGUCCUCGUCGCGGCCCCUGUCAGAUUCUGGUGAAUCUGCGAAUUCUGCUGU,0.803
20,GGGGGCCACAGCAGAAGCGUCCACGUCGCGGCCCCUGUCCGAUUCUGGUGAAUCUGCGAAUUCUGCUGU,0.372
21,GGGGGCCACAGCAGAAGCGUCCACGUCGCGGCCCCUGUCGGAUUCUGGUGAAUCUGCGAAUUCUGCUGU,0.719
22,GGGGGCCACAGCAGAAGCGUCCACGUCGCGGCCCCUGUCUGAUUCUGGUGAAUCUGCGAAUUCUGCUGU,0.642
23,GGGGGCCACAGCAGAAGCGUCCACGUCGCGGCCCCUGUCAGGUUCUGGUGAAUCUGCGAAUUCUGCUGU,0.749
24,GGGGGCCACAGCAGAAGCGUCCACGUCGCGGCCCCUGUCAGUUUCUGGUGAAUCUGCGAAUUCUGCUGU,0.891
25,GGGGGCCACAGCAGAAGCGUCCACGUCGCGGCCCCUGUCAGAUUCUGGUGCAUCUGCGAAUUCUGCUGU,0.913
26,GGGGGCCACAGCAGAAGCGUCCACGUCGCGGCCCCUGUCAGAUUCUGGUGUAUCUGCGAAUUCUGCUGU,0.861

row,Variant,self-cleavage
1,GGGGGCCACAGCAGAAGCGUCCACGUCGCGGCCCCUGUCAGAUUCUGGUGACUCUGCGAAUUCUGCUGU,0.854
2,GGGGGCCACAGCAGAAGCGUCCACGUCGCGGCCCCUGUCAGAUUCUGGUGAAUCUGCGGAUUCUGCUGU,0.928
3,GGGGGCCACAGCAGAAGCGUCCACGUCGCGGCCCCUGUCAGAUUCUGGUGAAUCUGCGUAUUCUGCUGU,0.581
4,GGGGGCCACAGCAGAAGCGUCCACGUCGCGGCCCCUGUCAGAUUCUGGUGAAUCUGCGAGUUCUGCUGU,0.663
5,GGGGGCCACAGCAGAAGCGUCCACGUCGCGGCCCCUGUCAGAUUCUGGUGAAUCUGCGAUUUCUGCUGU,0.391
6,GGGGGCCACAGCAGAAGCGUCAACGUCGCGGCCCCUGUCAGAUUCUGGUGAAUCUGCGAAUUCUGCUGU,0.24
7,GGGGGCCACAGCAGAAGCGUCCAGGUCGCGGCCCCUGUCAGAUUCUGGUGAAUCUGCGAAUUCUGCUGU,0.223
8,GGGGGCCACAGCAGAAGCGUCCAUGUCGCGGCCCCUGUCAGAUUCUGGUGAAUCUGCGAAUUCUGCUGU,0.429
9,GGGGGCCACAGCAGAAGCGUCCACGUAGCGGCCCCUGUCAGAUUCUGGUGAAUCUGCGAAUUCUGCUGU,0.344
10,GGGGGCCACAGCAGAAGCGUCCACGUUGCGGCCCCUGUCAGAUUCUGGUGAAUCUGCGAAUUCUGCUGU,0.138
11,GGGGGCCACAGCAGAAGCGUCCACGUCGGGGCCCCUGUCAGAUUCUGGUGAAUCUGCGAAUUCUGCUGU,0.247
12,GGGGGCCACAGCAGAAGCGUCCACGUCGUGGCCCCUGUCAGAUUCUGGUGAAUCUGCGAAUUCUGCUGU,0.217
13,GGGGGCCACAGCAGAAGCGUCCACGUCGCGGACCCUGUCAGAUUCUGGUGAAUCUGCGAAUUCUGCUGU,0.741
14,GGGGGCCACAGCAGAAGCGUCCACGUCGCGGGCCCUGUCAGAUUCUGGUGAAUCUGCGAAUUCUGCUGU,0.226
15,GGGGGCCACAGCAGAAGCGUCCACGUCGCGGUCCCUGUCAGAUUCUGGUGAAUCUGCGAAUUCUGCUGU,0.918
16,GGGGGCCACAGCAGAAGCGUCCACGUCGCGGCUCCUGUCAGAUUCUGGUGAAUCUGCGAAUUCUGCUGU,0.919
17,GGGGGCCACAGCAGAAGCGUCCACGUCGCGGCCACUGUCAGAUUCUGGUGAAUCUGCGAAUUCUGCUGU,0.303
18,GGGGGCCACAGCAGAAGCGUCCACGUCGCGGCCGCUGUCAGAUUCUGGUGAAUCUGCGAAUUCUGCUGU,0.328
19,GGGGGCCACAGCAGAAGCGUCCACGUCGCGGCCUCUGUCAGAUUCUGGUGAAUCUGCGAAUUCUGCUGU,0.898
20,GGGGGCCACAGCAGAAGCGUCCACGUCGCGGCCCGUGUCAGAUUCUGGUGAAUCUGCGAAUUCUGCUGU,0.206
21,GGGGGCCACAGCAGAAGCGUCCACGUCGCGGCCCUUGUCAGAUUCUGGUGAAUCUGCGAAUUCUGCUGU,0.716
22,GGGGGCCACAGCAGAAGCGUCCACGUCGCGGCCCCUGUAAGAUUCUGGUGAAUCUGCGAAUUCUGCUGU,0.498
23,GGGGGCCACAGCAGAAGCGUCCACGUCGCGGCCCCUGUUAGAUUCUGGUGAAUCUGCGAAUUCUGCUGU,0.842
24,GGGGGCCACAGCAGAAGCGUCCACGUCGCGGCCCCUGUCAGAUUAUGGUGAAUCUGCGAAUUCUGCUGU,0.87
25,GGGGGCCACAGCAGAAGCGUCCACGUCGCGGCCCCUGUCAGAUUUUGGUGAAUCUGCGAAUUCUGCUGU,0.88
26,GGGGGCCACAGCAGAAGCGUCCACGUCGCGGCCCCUGUCAGAUUCUGGUGAAUAUGCGAAUUCUGCUGU,0.769
